In publication PMC10190533, “Engineering Escherichia coli to Utilize Erythritol as Sole Carbon Source” (Advanced Science, 2022):

Molecular target: the molecule itself
Test: SEC + native gel or EMSA

B1: eryD, erythritol-binding transcriptional repressor from Ochrobactrum spp. (natural protein)
chain: MADADDSLALRAAWLHFVAGMTQSAVAKRLGLPSVKAHRLIAKAVADGAVKVTIDGDITECIDLENRLADLYGLDYCEVAPDIGEEGLPLMALGHAGANFMRREIEHGDHEVIGIGHGRTLSAAVGYMPRVMANDLRFVSLLGGLTRNFAANPHDVMHRIAEKTGMPAYVMPVPFFANTAEDREVLLAQRGVTTVFDMGCRAELKIVGIGTVDAQAQLVTSGMIELGEVEEIANLGGVGEMLGHFFNANGQWLETALTGRTIAASVENADMSRIVALAGGLSKVDAIRAVLKSGRLYGLITDERTAKALIGQPNGK
notes: also called erythritol-responding genetic repressor eryD
For B1, the “stoichiometry N” value was 4.
